Results on 6 molecules are retold here after patent US20130089557A1 (SAMSUNG ELECTRONICS, published 2013).

Usually Kd stands for the constant that tells how readily two partners part at equilibrium.

The target of assay [1] is T1, human c-Met protein (human, UniProt P08581 25-932, limits assumed).
T1 construct: also called c-Met antigen
The assay is described as follows: method not described.

For assay [2], the target named is c-Met on MKN45 gastric cancer cells and on Caki-1 cells (human, UniProt P08581 25-1390). Description: cell-based or functional assay.
Sequence of c-Met on MKN45 gastric cancer cells and on Caki-1 cells (P08581 25-1390): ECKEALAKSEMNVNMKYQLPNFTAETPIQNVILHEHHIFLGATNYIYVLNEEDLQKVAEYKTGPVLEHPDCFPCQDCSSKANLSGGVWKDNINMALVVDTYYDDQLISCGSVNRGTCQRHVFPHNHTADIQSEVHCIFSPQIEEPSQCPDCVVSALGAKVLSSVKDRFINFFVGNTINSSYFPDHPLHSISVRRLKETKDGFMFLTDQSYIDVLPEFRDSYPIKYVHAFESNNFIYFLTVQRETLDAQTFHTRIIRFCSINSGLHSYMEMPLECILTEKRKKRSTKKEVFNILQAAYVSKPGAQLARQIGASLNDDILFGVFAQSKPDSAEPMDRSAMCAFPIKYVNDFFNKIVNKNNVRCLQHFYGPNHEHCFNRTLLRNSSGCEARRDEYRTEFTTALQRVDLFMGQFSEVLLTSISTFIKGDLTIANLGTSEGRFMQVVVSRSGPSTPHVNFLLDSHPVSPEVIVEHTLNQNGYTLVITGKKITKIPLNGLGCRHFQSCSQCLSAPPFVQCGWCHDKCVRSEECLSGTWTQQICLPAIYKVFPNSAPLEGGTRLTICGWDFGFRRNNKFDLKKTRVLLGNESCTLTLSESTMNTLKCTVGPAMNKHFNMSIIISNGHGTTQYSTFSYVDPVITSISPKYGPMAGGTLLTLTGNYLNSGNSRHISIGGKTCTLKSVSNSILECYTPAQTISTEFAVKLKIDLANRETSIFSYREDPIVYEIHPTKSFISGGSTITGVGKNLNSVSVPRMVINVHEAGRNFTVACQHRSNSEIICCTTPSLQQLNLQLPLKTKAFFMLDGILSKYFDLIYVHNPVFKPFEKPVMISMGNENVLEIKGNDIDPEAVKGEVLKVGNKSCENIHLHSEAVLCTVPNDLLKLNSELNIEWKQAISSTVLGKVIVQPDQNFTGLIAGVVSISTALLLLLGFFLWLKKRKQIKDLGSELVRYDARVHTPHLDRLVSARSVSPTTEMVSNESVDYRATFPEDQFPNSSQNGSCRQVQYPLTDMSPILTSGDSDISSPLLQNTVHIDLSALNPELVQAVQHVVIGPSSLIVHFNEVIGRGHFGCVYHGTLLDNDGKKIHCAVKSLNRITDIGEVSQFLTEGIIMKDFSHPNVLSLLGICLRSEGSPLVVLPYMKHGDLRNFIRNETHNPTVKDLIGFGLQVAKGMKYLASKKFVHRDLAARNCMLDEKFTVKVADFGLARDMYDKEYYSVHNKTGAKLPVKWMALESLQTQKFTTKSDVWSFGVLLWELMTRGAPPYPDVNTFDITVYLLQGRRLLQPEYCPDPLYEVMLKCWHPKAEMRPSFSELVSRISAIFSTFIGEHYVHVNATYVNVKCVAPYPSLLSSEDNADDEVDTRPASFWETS
The target of assay [3] is T2, FSPQIEDPSQCPDCVVSALGAKVL (SEQ ID NO: 71).
T2 construct: Peptide with the E168D mutation
T2 peptide: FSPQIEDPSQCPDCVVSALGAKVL
Description: PEPSCAN peptide ELISA. As to the method:
(§1) For epitope mapping, PEPSCAN-based ELISA was performed using a total number of 529 linear and CLIPS peptides. The peptides were maintained at room temperature for 30 minutes by using a 5% blocking solution to provoke a reaction (4% ovalbumin, 5% horse serum, and 1% Tween 80). […] Thereafter, the resultant product was treated with rabbit-anti-sheep antibody (SIGMA) and washed with PBS, and the washed product was then treated with peroxidase-attached swine-anti-rabbit antibody (SIGMA) and washed with PBS. Then, the resultant product was treated with 2 ul/ml of peroxidase 2,2′-azino-di-3-ethylbenzthiazoline sulfonate (ABTS)(SIGMA) in 3% H₂O₂, and a color reaction was measured after 1 hour.
(ELISA stands for enzyme-linked immunosorbent assay.)

Assay [4] has as its target T3, CSPQIEDPSQC (SEQ ID NO: 72).
T3 peptide: CSPQIEDPSQC
Description: PEPSCAN peptide ELISA. As to the method: as §1

For assay [5], the target named is T4, CIEDPSQAPDC (SEQ ID NO: 75).
T4 peptide: CIEDPSQAPDC
Description: PEPSCAN peptide ELISA. As to the method: as §1

The target in assay [6] is T5, CQIEDPSQAPC (SEQ ID NO: 74).
T5 peptide: CQIEDPSQAPC
The assay is described as follows: PEPSCAN peptide ELISA. The procedure: as §1

Assay [7] has as its target T6, CEDPSQAPDAC (SEQ ID NO: 76).
T6 peptide: CEDPSQAPDAC
Description: PEPSCAN peptide ELISA. The procedure: as §1

Assay [8] addresses T7, CPQIEDPSQAC (SEQ ID NO: 73).
T7 peptide: CPQIEDPSQAC
The assay is described as follows: PEPSCAN peptide ELISA. The procedure:
as §1

The target of assay [9] is T8, EEPSQ peptide (SEQ ID NO: 3).
T8 construct: the range is one residue short
T8 peptide: EEPSQ
Description: SPR (Biacore), huAbF46 on CM5 chip, peptide injected 0.39-100 nM. (In general: Surface plasmon resonance follows binding to a sensor surface in real time, without labels.)

Assay [10] deals with T9, EEPAQ peptide (SEQ ID NO: 81).
T9 peptide: EEPAQ
Described as above.

Assay [11] deals with T10, EAPSQ peptide (SEQ ID NO: 79).
T10 peptide: EAPSQ
The assay is described as follows: SPR (Biacore), huAbF46 on CM5 chip, peptide injected.

The target of assay [12] is T11, AEPSQ peptide (SEQ ID NO: 78).
T11 peptide: AEPSQ
The description is as above.

In assay [13] the target is T12, EEPSA peptide (SEQ ID NO: 82).
T12 peptide: EEPSA
The description is as above.

For assay [14], the target named is T13, EEASQ peptide (SEQ ID NO: 80).
T13 peptide: EEASQ
The description is as above.

Assay [15] addresses T14, AAAAA peptide (SEQ ID NO: 77).
T14 peptide: AAAAA
The description is as above.

The target in assay [16] is T1, human c-Met protein. Description: SPR (Biacore), against huAbF46 (Table 3). As to the method: Affinities of the 4 types of antibodies against c-Met antigen were measured by using a Biacore (GE healthcare). About 80 to 110 RU of each antibody was immobilized on a CM5 chip, and 9 different concentrations ranging from 0.39 nM to 100 nM of human c-Met protein, as an antigen, were injected at a rate of 30 ul/min to obtain kₒₙ values and koff values as shown in Table 3. Then, KD values were calculated based thereon.

T1 sequence (P08581 25-932 limits assumed): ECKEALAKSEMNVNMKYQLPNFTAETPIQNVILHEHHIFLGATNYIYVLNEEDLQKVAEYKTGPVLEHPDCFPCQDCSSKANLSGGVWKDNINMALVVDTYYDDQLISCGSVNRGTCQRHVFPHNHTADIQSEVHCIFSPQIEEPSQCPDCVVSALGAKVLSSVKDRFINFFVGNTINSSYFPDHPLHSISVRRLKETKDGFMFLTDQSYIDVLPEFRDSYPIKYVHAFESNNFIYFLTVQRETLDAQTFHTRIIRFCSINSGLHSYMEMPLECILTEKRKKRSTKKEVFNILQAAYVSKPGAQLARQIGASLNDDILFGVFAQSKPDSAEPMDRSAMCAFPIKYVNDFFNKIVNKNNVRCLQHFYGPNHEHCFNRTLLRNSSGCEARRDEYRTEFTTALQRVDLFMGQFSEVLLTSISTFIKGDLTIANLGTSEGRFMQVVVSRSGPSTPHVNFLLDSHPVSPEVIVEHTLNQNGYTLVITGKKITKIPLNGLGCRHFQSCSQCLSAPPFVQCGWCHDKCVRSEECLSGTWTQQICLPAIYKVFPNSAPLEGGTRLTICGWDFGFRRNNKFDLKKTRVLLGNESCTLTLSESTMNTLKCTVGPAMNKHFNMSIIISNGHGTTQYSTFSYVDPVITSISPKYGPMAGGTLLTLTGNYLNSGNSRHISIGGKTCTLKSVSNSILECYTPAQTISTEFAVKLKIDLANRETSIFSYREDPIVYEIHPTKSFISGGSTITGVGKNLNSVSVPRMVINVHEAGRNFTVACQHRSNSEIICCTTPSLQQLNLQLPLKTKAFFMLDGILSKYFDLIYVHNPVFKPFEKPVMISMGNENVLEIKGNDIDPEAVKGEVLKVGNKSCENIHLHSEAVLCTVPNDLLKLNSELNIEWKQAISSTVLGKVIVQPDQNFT

B1: scFv of huAbF46 antibody (scFv)
scFv: EVQLVESGGGLVQPGGSLRLSCAASGFTFTDYYMSWVRQAPGKGLEWLGFIRNKANGYTTEYSASVKGRFTISRDNSKNTLYLQMNSLRAEDTAVYYCARDNWFAYWGQGTLVTVSSGLGGLGGGGSGGGGSGGSSGVGSDIQMTQSPSSLSASVGDRVTITCKSSQSLLASGNQNNYLAWHQQKPGKAPKMLIIWASTRVSGVPSRFSGSGSGTDFTLTISSLQPEDFATYYCQQSYSAPLTFGQGTKVEIKR
notes: 'VH-linker-VL' form; Tags or display fusion partner not described; also called wild-type antibody (scFv of huAbF46)
For B1, in the assay with human c-Met protein [1], the binding result is on record as “binds”.

B2: huAbF46-H4-A5 (antibody, V domains shown)
VH: EVQLVESGGGLVQPGGSLRLSCAASGFTFTDYYMSWVRQAPGKGLEWLGFIRNKANGYTTEYSASVKGRFTISRDNSKNTLYLQMNSLRAEDTAVYYCARDNWFAYWGQGTLVTVSS
VL: DIQMTQSPSSLSASVGDRVTITCKSSQSLLASGNQNNYLAWHQQKPGKAPKMLIIWASTRVSGVPSRFSGSGSGTDFTLTISSLQPEDFATYYCQQSYSRPFTFGQGTKVEIKR
Regarding B2, the “degree of degradation of c-Met (total c-Met ELISA, MKN45 cells, 5 ug/ml antibody, 24 hours)” value (“degree of degradation of c-Met” for short) in assay [2] is around 28%.

B3: humanized antibody huAbF46 (H4-heavy chain and H4-light chain) (antibody, human IgG1, kappa, V domains shown)
VH: EVQLVESGGGLVQPGGSLRLSCAASGFTFTDYYMSWVRQAPGKGLEWLGFIRNKANGYTTEYSASVKGRFTISRDNSKNTLYLQMNSLRAEDTAVYYCARDNWFAYWGQGTLVTVSS
VL: DIQMTQSPSSLSASVGDRVTITCKSSQSLLASGNQNNYLAWHQQKPGKAPKMLIIWASTRVSGVPSRFSGSGSGTDFTLTISSLQPEDFATYYCQQSYSAPLTFGQGTKVEIKR
notes: also called humanized antibody AbF46
Regarding B3, the binding result in assay [3], in assay [4], in [5], in assay [6], in assay [7] and in assay [8] was “no binding (tested: 1 to 100 ug/ml of huAbF46 antibody)” in each case. Besides, the binding result in assay [11], in assay [12], in assay [13], in assay [14] and in assay [15] was “no binding (tested: 100 nM to 0.39 nM of the peptides)” throughout. Also, the Kd in [9] amounted to 1.64 nM; in assay [10] it was 1.43 nM.

B4: huAbF46-H4-A2 (antibody, V domains shown)
VH: EVQLVESGGGLVQPGGSLRLSCAASGFTFTDYYMSWVRQAPGKGLEWLGFIRNKANGYTTEYSASVKGRFTISRDNSKNTLYLQMNSLRAEDTAVYYCARDNWFAYWGQGTLVTVSS
VL: DIQMTQSPSSLSASVGDRVTITCKSSQSLLASGNQNNYLAWHQQKPGKAPKMLIIWASTRVSGVPSRFSGSGSGTDFTLTISSLQPEDFATYYCGQSYSRPLTFGQGTKVEIKR
notes: IgG; also called IgG from clone L3-2
In the case of B4, the “degree of degradation of c-Met” value in [2] is around 28%. For the same molecule, in the assay with human c-Met protein [16], the “fold improvement of affinity” value is 5 times.

B5: huAbF46-H4-A3 (antibody, V domains shown)
VH: EVQLVESGGGLVQPGGSLRLSCAASGFTFTDYYMSWVRQAPGKGLEWLGFIRNKANGYTTEYSASVKGRFTISRDNSKNTLYLQMNSLRAEDTAVYYCARDNWFAYWGQGTLVTVSS
VL: DIQMTQSPSSLSASVGDRVTITCKSSQSLLASGNQNNYLAWHQQKPGKAPKMLIIWASTRVSGVPSRFSGSGSGTDFTLTISSLQPEDFATYYCAQSYSHPFSFGQGTKVEIKR
On to B5, for which, in assay [2], the “degree of degradation of c-Met” value was around 28%.

B6: huAbF46-H4-A1 (antibody, V domains shown)
VH: EVQLVESGGGLVQPGGSLRLSCAASGFTFTDYYMSWVRQAPGKGLEWLGFIRNKANGYTTEYSASVKGRFTISRDNSKNTLYLQMNSLRAEDTAVYYCARDNWFAYWGQGTLVTVSS
VL: DIQMTQSPSSLSASVGDRVTITCKSSQSLLASGNQNNYLAWHQQKPGKAPKMLIIWASTRVSGVPSRFSGSGSGTDFTLTISSLQPEDFATYYCQQSYSRPYTFGQGTKVEIKR
notes: IgG; also called IgG from clone L3-1
With B6, the “degree of degradation of c-Met” value in [2] was around 37%. Also, the “fold improvement of affinity” value with human c-Met protein [16] was 37 times.
